Laboratory results reported in patent US20190375786A1, “STABLE PEPTIDES AND METHODS OF USE THEREOF” (Fred Hutchinson Cancer Research Center, priority 2016, published 2019).
“Also recorded” adds a separate entry of the source. Positions of bridges follow the written chain, without caps; N, C: chain ends. Residues, ends and D or L forms follow the SMILES beside them.

Legend:
[1] = target: pepsin (Sus scrofa, UniProt P00791); test: Pepsin digestion resistance in simulated gastric fluid, RP-HPLC; assay type: in vitro ADME, porcine; design: purchased Sigma Aldrich P7012; conditions: 500 U/ml pepsin (50 U per reaction) in SGF, 30 minutes at 37.5° C.; HPLC
Chain of pepsin (P00791 60-385): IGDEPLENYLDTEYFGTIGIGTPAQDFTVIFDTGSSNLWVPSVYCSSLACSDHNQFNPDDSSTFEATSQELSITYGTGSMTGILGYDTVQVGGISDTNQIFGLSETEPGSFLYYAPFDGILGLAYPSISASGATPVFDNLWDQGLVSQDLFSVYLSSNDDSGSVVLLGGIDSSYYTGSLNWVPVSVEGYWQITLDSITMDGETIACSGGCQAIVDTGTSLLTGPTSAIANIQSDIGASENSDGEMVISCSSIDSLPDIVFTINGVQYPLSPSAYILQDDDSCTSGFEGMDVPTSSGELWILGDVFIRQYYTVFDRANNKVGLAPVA
Description: Peptides were first suspended in 500 ul of ddH2O to a stock concentration of 2 mg/ml. Reactions were prepared by adding 12.5 ug of peptide from the stock solution to a 10 mM solution of DTT in PBS and allowed to incubate at room temperature for 30 minutes. Other reactions were prepared with 12.5 μg peptide with or without 500 U/ml pepsin in simulated gastric fluid (SGF; pH 1.05; […] sodium chloride in 0.7% (v/v) hydrochloric acid) and were incubated for 30 minutes at 37.5° C. Some reactions were quenched with a final concentration of 100 mM Tris base and 10 mM dithiothreitol (DTT). Some reactions were performed in all of the above components, including simulated gastric fluid, pepsin, Tris, and DTT (referred to as SPTD). Reversed phase HPLC (RP-HPLC) was run on samples using an Agilent 1260 HPLC equipped with a C-18 Poroshell 120B column. Sample were analyzed by a gradient method with a mobile phase of Solvent A (water with 0.1% TFA) and Solvent B (acetonitrile with 0.1% TFA). Solvent B was ramped up from 5%-45% of the mobile phase over a period of 10 minutes. Peptides were detected at an absorbance of 214 nm and 280 nm.
(§1) Peptides were first suspended in 500 μl of ddH2O to a stock concentration of 2 mg/ml. Reactions were prepared by adding 12.5 μg of peptide from the stock solution to a 10 mM solution of DTT in PBS and allowed to incubate at room temperature for 30 minutes. Other reactions were prepared with 12.5 μg peptide and 500 U/ml trypsin in 25 mM Tris/75 mM NaCl buffer (pH 7.0) and incubated for 30 minutes at 37.5° C. These reactions were then quenched with 5 μg of soybean trypsin inhibitor (I) and, in some cases, 10 mM dithiothreitol (DTT). Reversed phase HPLC (RP-HPLC) was run on samples using an Agilent 1260 HPLC equipped with a C-18 Poroshell 120B column. Sample were analyzed by a gradient method with a mobile phase of Solvent A (water with 0.1% TFA) and Solvent B (acetonitrile with 0.1% TFA). Solvent B was ramped up from 5%-45% of the mobile phase over a period of 10 minutes. For testing pepsin digestion resistance, reactions were prepared with 12.5 μg peptide with or without 500 U/ml pepsin in simulated gastric fluid (SGF; pH 1.05; […] sodium chloride in 0.7% (v/v) hydrochloric acid) and were incubated for 30 minutes at 37.5° C. For testing temperature resistance, peptides were incubated at 70° C., 75° C., or 100° C. for one hour in 0.5 mM PBS, pelleted, and then the supernatant was analyzed by HPLC.
(§2) This example illustrates peptide stability in biological conditions including in the presence of reducing agents, proteases, oxidative conditions, acidic conditions, and simulated gastric fluids. […] Various peptides were suspended in 500 μl of ddH2O at a stock concentration of 2 mg/ml. This was then diluted in accord with the reaction conditions to prevent adverse buffering effects. Reactions were prepared with 12.5 μg peptide dissolved in solution and, in some samples, additionally suspended in a 10 mM solution of DTT, simulated gastric fluid (pH 1.05; […] sodium chloride in 0.7% (v/v) hydrochloric acid), 500 U pepsin (5000 U/ml pepsin), 50 U trypsin (500 U/ml trypsin) with 1 mg/ml inhibitor in PBS, or a combination of any of these conditions. All protease reactions were incubated for 30 min at room temperature and then quenched. Pepsin reactions were quenched by adding Tris base to a final concentration of 0.075 M. Trypsin reactions were quenched by adding excess soybean trypsin inhibitor. RP-HPLC was then run on samples using an Agilent 1260 HPLC equipped with a C-18 Poroshell 120B column. Sample were analyzed by a gradient method with a mobile phase of Solvent A (water with 0.1% TFA) and Solvent B (acetonitrile with 0.1% TFA). Solvent B was ramped up from 5%-45% of the mobile phase over a period of 10 minutes.
FIG. 20 illustrates high performance liquid chromatograph (HPLC) traces of peptides after pepsin digestion. […]

[2] = target: trypsin (Sus scrofa, UniProt P00761); test: Trypsin digestion resistance of soluble peptide, RP-HPLC; assay type: in vitro ADME, porcine; design: purchased Sigma Aldrich 6567; conditions: 500 U/ml trypsin (50 U per reaction), 30 minutes at 37.5° C.; HPLC
Chain of trypsin (P00761 9-231): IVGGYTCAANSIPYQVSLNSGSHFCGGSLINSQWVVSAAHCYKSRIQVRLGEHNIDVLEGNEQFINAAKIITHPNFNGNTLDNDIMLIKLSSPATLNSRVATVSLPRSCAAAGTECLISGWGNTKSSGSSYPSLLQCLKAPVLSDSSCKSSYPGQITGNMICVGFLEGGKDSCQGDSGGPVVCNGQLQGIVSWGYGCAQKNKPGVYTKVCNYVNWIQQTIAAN
Description: as §1, §2
Soluble peptides were exposed to 500 U/mL porcine trypsin and analyzed by HPLC. Protease resistance was also assessed by using SDPR-displaying peptides. The SDPR vector is similar to the a surface display GFP FasL(SDGF) vector, but contains a C-terminal 6×His tag (SEQ ID NO: 180) and all basic or aromatic amino acid residues on the stalk removed. Protease resistance is then tested by incubation of cells displaying peptides with trypsin or chymotrypsin, followed by incubation in 10 mM DTT, and staining with an anti-6×His fluorophore-labeled antibody (“6×His” disclosed as SEQ ID NO: 180). If peptides are uncleaved, they retain the His tag and are stained with by the antibody. A control protease-sensitive knottin peptide (SK) was used as a positive control. Cells displaying peptides were treated with up to 40 μg/ml trypsin or chymotrypsin.
FIG. 21 illustrates high performance liquid chromatograph (HPLC) traces of peptides after trypsin digestion. […] The assay was carried out by reconstituting 1 mg porcine trypsin (Sigma Aldrich 6567) in 1 mL of 1 mM HCl. Trypsin was provided at a concentration of 10,000 u/mL and thus, 5 μl of stock solution was equivalent to using 50 U of trypsin in each reaction. Soybean trypsin inhibitor (SA T9128) was prepared at 1 mg/mL of in H2O. […]

[3] = Resistance to elevated temperature, HPLC; assay type: physicochemical; conditions: HPLC; for resistance to incubation at 70° C. (in words): 70° C. for 1 hour; for resistance to incubation at 100° C. (in words): 100° C. for 1 hour
Description: as §1
This example illustrates peptide stability at high temperatures. Peptides were first suspended in 500 μl of ddH2O to a stock concentration of 2 mg/ml. Reactions were prepared by adding 6.25 μl of peptide from the stock solution with 95 μl ddH2O and incubated at room temperature, 70° C., or 100° C. for one hour in a Thermocycler. RP-HPLC was then run on samples using an Agilent 1260 HPLC equipped with a C-18 Poroshell 120B column. Sample were analyzed by a gradient method with a mobile phase of Solvent A (water with 0.1% TFA) and Solvent B (acetonitrile with 0.1% TFA). Solvent B was ramped up from 5%-45% of the mobile phase over a period of 10 minutes.

Row | Molecule | resistance to pepsin digestion (in words) [1] | resistance to trypsin digestion (in words) [2] | resistance to incubation at 70° C. (in words) [3] | resistance to incubation at 100° C. (in words) [3]
1 | CSCC[C@@H]1NC(=O)[C@@H]2CSSC[C@H](NC(=O)[C@H](CCCCN)NC(=O)[C@@H](NC(=O)[C@H](CC(=O)O)NC(=O)[C@@H](NC(=O)[C@H](Cc3ccccc3)NC(=O)[C@H](CCC(N)=O)NC(=O)[C@H](CO)NC(=O)CN)[C@@H](C)O)C(C)C)C(=O)N[C@@H]([C@@H](C)O)C(=O)NCC(=O)N[C@@H](CO)C(=O)N[C@@H](CCCCN)C(=O)N[C@@H](CCC(N)=O)C(=O)N[C@H]3CSSC[C@H](NC(=O)[C@H](CCCCN)NC(=O)CNC(=O)[C@H](CC(N)=O)NC1=O)C(=O)N[C@@H](CCCNC(=N)N)C(=O)N[C@H](C(=O)N[C@@H](Cc1ccc(O)cc1)C(=O)N[C@@H](CO)C(=O)O)CSSC[C@H](NC(=O)[C@H](C(C)C)NC(=O)[C@@H]1CCCN1C(=O)[C@H](Cc1c[nH]c4ccccc14)NC3=O)C(=O)N[C@@H](CCCCN)C(=O)N[C@@H](CCC(N)=O)C(=O)N[C@@H](CCSC)C(=O)N[C@@H](Cc1ccccc1)C(=O)NCC(=O)N[C@@H](CCCCN)C(=O)N1CCC[C@H]1C(=O)N[C@@H](CC(N)=O)C(=O)NCC(=O)N[C@@H](CCCCN)C(=O)N2 [SEQ ID NO: 12] (H-GSQFTDVKCTGSKQCWPVCKQMFGKPNGKCMNGKCRCYS-OH; disulfide 9-30, 15-35, 19-37) | highly resistant | moderately resistant |  | 
2 | CC[C@H](C)[C@@H]1NC(=O)[C@@H](NC(=O)[C@H](CC(=O)O)NC(=O)[C@H](CCCCN)NC(=O)[C@H](CCC(=O)O)NC(=O)[C@H](CO)NC(=O)[C@H](CO)NC(=O)CN)CSSC[C@@H]2NC(=O)[C@@H]3CSSC[C@@H](C(=O)N[C@@H](CCCNC(=N)N)C(=O)O)NC(=O)[C@H](CCCNC(=N)N)NC(=O)[C@H](CCCCN)NC(=O)[C@H](CCC(=O)O)NC(=O)[C@@H]4CCCN4C(=O)[C@H](CC(N)=O)NC(=O)[C@H]([C@@H](C)O)NC(=O)CNC(=O)[C@H](CCCNC(=N)N)NC(=O)[C@H](CCCNC(=N)N)NC(=O)[C@H](CO)NC(=O)[C@H](CSSC[C@H](NC(=O)[C@H](CCCNC(=N)N)NC(=O)[C@H](CCC(N)=O)NC(=O)[C@H](CC(C)C)NC(=O)[C@H](Cc4c[nH]cn4)NC(=O)[C@H](CCCCN)NC1=O)C(=O)N[C@@H](CCCNC(=N)N)C(=O)N[C@@H](CCC(=O)O)C(=O)N[C@@H](CC(N)=O)C(=O)N[C@@H](CCCCN)C(=O)N[C@@H](CC(=O)O)C(=O)N3)NC(=O)[C@H](CCCCN)NC(=O)[C@H](CCCCN)NC(=O)[C@H](CO)NC2=O [SEQ ID NO: 29] (H-GSSEKDCIKHLQRCRENKDCCSKKCSRRGTNPEKRCR-OH; disulfide 7-21, 14-25, 20-36) | resistant |  |  | 
3 | GSACLAEYQKCEGSTVPCCPGLSCSAGRFRKTKLCTK [SEQ ID NO: 25] |  |  | resistant | various degrees of degradation
4 | CC[C@H](C)[C@@H]1NC(=O)[C@H](CCCCN)NC(=O)[C@@H](NC(=O)[C@H](CCCCN)NC(=O)[C@@H](NC(=O)[C@H](CC(N)=O)NC(=O)[C@@H](NC(=O)[C@@H](NC(=O)[C@@H](NC(=O)CNC(=O)[C@H](CO)NC(=O)CN)C(C)C)[C@@H](C)CC)[C@@H](C)CC)C(C)C)CSSC[C@@H]2NC(=O)[C@H](CCCCN)NC(=O)CNC(=O)[C@H](Cc3ccccc3)NC(=O)[C@H](CCCNC(=N)N)NC(=O)[C@H](CCSC)NC(=O)CNC(=O)[C@H](C)NC(=O)[C@H](CCCCN)NC(=O)[C@H](CCCCN)NC(=O)[C@@H]3CSSC[C@@H](C(=O)N[C@H](C(=O)N4CCC[C@H]4C(=O)N[C@@H](CCCCN)C(=O)O)[C@@H](C)O)NC(=O)[C@H](Cc4c[nH]cn4)NC(=O)[C@H](CSSC[C@H](NC(=O)[C@H](CCC(N)=O)NC(=O)[C@H](CCCNC(=N)N)NC(=O)[C@H](CO)NC1=O)C(=O)N[C@@H](CC(C)C)C(=O)N[C@@H](CCC(=O)O)C(=O)N1CCC[C@H]1C(=O)N3)NC(=O)[C@H](CCCCN)NC(=O)CNC(=O)[C@H](CC(N)=O)NC(=O)[C@H](CCSC)NC2=O [SEQ ID NO: 57] |  | highly resistant; also recorded: fully resistant |  | 
5 | GSEVIRCSGSKQCYGPCKQQTGCTNSKCMNKVCKCYGCG [SEQ ID NO: 23] |  |  | resistant | various degrees of degradation
6 | GSACQFWSCNSSCISRGYRQGYCWGIQYKYCQCQ [SEQ ID NO: 17] |  |  |  | resistant
